1 substance from US20150232556A1 can be followed below.

The target in this test is KIR3DL2CD3ε fusion protein on Jurkat reporter cells (UniProt P43630). The experiment in a line: cell-based or functional assay.
KIR3DL2CD3ε fusion protein on Jurkat reporter cells, sequence (P43630 other isoform, or with tags, fused parts or gaps limits assumed): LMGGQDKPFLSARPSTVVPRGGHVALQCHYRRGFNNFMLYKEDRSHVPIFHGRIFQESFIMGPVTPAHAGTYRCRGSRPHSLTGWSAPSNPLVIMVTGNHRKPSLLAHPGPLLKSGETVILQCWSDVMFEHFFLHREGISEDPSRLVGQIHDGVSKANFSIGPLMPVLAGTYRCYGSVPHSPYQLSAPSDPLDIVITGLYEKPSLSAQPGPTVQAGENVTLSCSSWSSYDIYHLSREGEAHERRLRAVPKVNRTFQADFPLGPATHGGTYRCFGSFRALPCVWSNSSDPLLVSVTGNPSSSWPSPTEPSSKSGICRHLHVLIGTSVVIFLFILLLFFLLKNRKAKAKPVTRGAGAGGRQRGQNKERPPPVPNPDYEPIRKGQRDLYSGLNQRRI

“HLA-B27 on transfected LCL.LBL.721.221 cells (ligand)” came in with an IL-2 production by KIR3DL2CD3ε transduced Jurkat reporter cells (ELISA) of 6 fold.
